Results taken from patent US20250152742A1, “COMPOSITIONS AND METHODS FOR NEUROLOGICAL DISEASES” (Trames Bio, Inc., priority 2022, published 2025).

System: engineered chimeric receptor SEQ ID NO: 33 and its mutants (human α7-nAChR ligand binding domain / human GlyRα1 ion pore domain) in Lenti-X 293T cells
Assay: YFP fluorescence quenching anion reporter plate reader assay (percent quench, EC50)
Format: cell-based
Details: for YFP fluorescence quenching using CNL001 (percent quench): receptor named in row; for YFP fluorescence quenching using Varenicline, 3 nM var: ligand Varenicline 3 nM; for YFP fluorescence quenching using Varenicline, 30 nM var: ligand Varenicline 30 nM; for YFP fluorescence quenching using Varenicline, 300 nM var: ligand Varenicline 300 nM; for YFP fluorescence quenching using Varenicline, 500 nM var: ligand Varenicline 500 nM; for YFP fluorescence quenching using Varenicline, 1 uM var: ligand Varenicline 1 uM
Outline: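 Percent quench compares mean YFP signal over the final 10 s with the 15 s baseline before ligand, added in iodide-containing extracellular solution (pH 7.2). Cells were LX293T carrying a YFP anion reporter, transiently transfected with the channel construct; plates were preincubated 30 min at 37 °C.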

[1] = 1 nM CNL001, first column so headed
[2] = 1 nM CNL001, second column so headed
[3] = 1 nM brd (TC-5619/Bradanicline)
[4] = 3 nM brd (TC-5619/Bradanicline)
[5] = 10 nM CNL001, first column so headed
[6] = 10 nM CNL001, second column so headed
[7] = 10 nM brd (TC-5619/Bradanicline)
[8] = 30 nM brd (TC-5619/Bradanicline)
[9] = 50 nM CNL001, first column so headed
[10] = 50 nM CNL001, second column so headed
[11] = 100 nM CNL001, first column so headed
[12] = 100 nM CNL001, second column so headed
[13] = 300 nM brd (TC-5619/Bradanicline)
[14] = 1 uM CNL001, first column so headed
[15] = 1 uM CNL001, second column so headed

B1: CODA1039: engineered receptor: Y115E, Y210W in SEQ ID NO: 33 (protein)
chain: MRCSPGGVWLALAASLLHVSLQGEFQRKLYKELVKNYNPLERPVANDSQPLTVYFSLSLLQIMDVDEKNQVLTTNIWLQMSWTDHYLQWNVSEYPGVKTVRFPDGQIWKPDILLENSADERFDATFHTNVLVNSSGHCQYLPPGIFKSSCPMDLKNFPMDVQTCKLKFGSWSYGGWSLDLQMQEADISGYIPNGEWDLVGIPGKRSERFWECCKEPYPDVTFTVTMRRRMGYYLIQMYIPSLLIVILSWISFWINMDAAPARVGLGITTVLTMTTQSSGSRASLPKVSYVKAIDIWMAVCLLFVFSALLEYAAVNFVSRQHKELLRFRRKRRHHKSPMLNLFQEDEAGEGRFNFSAYGMGPACLQAKDGISVKGANNSNTTNPPPAPSKSPEEMRKLFIQRAKKIDKISRIGFPMAFLIFNMFYWIIYKIVRREDVHNQ
modifications: synthetic sequence of chimeric LGIC
YFP fluorescence quenching using CNL001 (percent quench) [1]: −1.12%
YFP fluorescence quenching using CNL001 (percent quench) [2]: −3.941%
YFP fluorescence quenching using TC-5619/Bradanicline (percent quench) [3]: −5.55%
YFP fluorescence quenching using TC-5619/Bradanicline (percent quench) [4]: 6.78%
YFP fluorescence quenching using CNL001 (percent quench) [5]: 6.275%
YFP fluorescence quenching using CNL001 (percent quench) [6]: 11.943%
YFP fluorescence quenching using TC-5619/Bradanicline (percent quench) [7]: −2.7%
YFP fluorescence quenching using TC-6683 (percent quench) (30 nM TC-6683): −1.608%
YFP fluorescence quenching using TC-5619/Bradanicline (percent quench) [8]: 34.43%
YFP fluorescence quenching using CNL001 (percent quench) [9]: 12.949%
YFP fluorescence quenching using CNL001 (percent quench) [10]: 18.635%
YFP fluorescence quenching using ABT-126 (percent quench) (50 nM abt (ABT-126)): −17.32%
YFP fluorescence quenching using CNL001 (percent quench) [11]: 17.576%
YFP fluorescence quenching using CNL001 (percent quench) [12]: 18.319%
YFP fluorescence quenching (percent quench) (100 nM CNL002): 21.85%
YFP fluorescence quenching using ABT-126 (percent quench) (100 nM abt (ABT-126)): −13.93%
YFP fluorescence quenching using AZD-0328 (percent quench) (100 nM azd0328): −10.45%
YFP fluorescence quenching using TC-6683 (percent quench) (300 nM TC-6683): −3.491%
YFP fluorescence quenching using ABT-126 (percent quench) (300 nM abt (ABT-126)): 9.9%
YFP fluorescence quenching using AZD-0328 (percent quench) (300 nM azd0328): −13%
YFP fluorescence quenching using TC-5619/Bradanicline (percent quench) [13]: 70.05%
YFP fluorescence quenching using ABT-126 (percent quench) (500 nM abt (ABT-126)): 36.97%
YFP fluorescence quenching using CNL001 (percent quench) [14]: 19.329%
YFP fluorescence quenching using CNL001 (percent quench) [15]: 20.672%
YFP fluorescence quenching (percent quench) (1 uM CNL002): 47.37%
YFP fluorescence quenching using ABT-126 (percent quench) (1 uM abt (ABT-126)): 48.37%
YFP fluorescence quenching using TC-6683 (percent quench) (3 uM TC-6683): −6.153%
YFP fluorescence quenching using ABT-126 (percent quench) (3 uM abt (ABT-126)): 50.5%
YFP fluorescence quenching using ABT-126 (percent quench) (10 uM abt (ABT-126)): 58.13%
YFP fluorescence quenching (percent quench) (10 uM ach (acetylcholine)): −2.97%
YFP fluorescence quenching (percent quench) (30 uM CNL002): 59.97%
YFP fluorescence quenching using TC-6683 (percent quench) (30 uM TC-6683): −9.263%
YFP fluorescence quenching using ABT-126 (percent quench) (30 uM abt (ABT-126)): 64.1%
YFP fluorescence quenching using AZD-0328 (percent quench) (30 uM azd0328): 30.76%
YFP fluorescence quenching using ABT-126 (percent quench) (50 uM abt (ABT-126)): 66.67%
YFP fluorescence quenching (percent quench) (50 uM ach (acetylcholine)): −3.94%
YFP fluorescence quenching using TC-6683 (percent quench) (100 uM TC-6683): −9.19%
YFP fluorescence quenching using ABT-126 (percent quench) (100 uM abt (ABT-126)): 68.63%
YFP fluorescence quenching (percent quench) (100 uM ach (acetylcholine)): 0.35%
YFP fluorescence quenching (percent quench) (300 uM ach (acetylcholine)): −4.13%
YFP fluorescence quenching (percent quench) (500 uM ach (acetylcholine)): −5.18%
YFP fluorescence quenching (percent quench) (1 mM ach (acetylcholine)): 1.21%
YFP fluorescence quenching (percent quench) (3 mM ach (acetylcholine)): 26.69%
YFP fluorescence quenching using Facinicline, 30 nM fac (ligand Facinicline 30 nM): −13.46
YFP fluorescence quenching using Facinicline, 300 nM fac (ligand Facinicline 300 nM): 5.43
YFP fluorescence quenching using Facinicline, 30 uM fac (ligand Facinicline 30 uM): 49.06
YFP fluorescence quenching using TC-6987, 1 uM tc6987 (ligand TC-6987 1 uM): 7.26
YFP fluorescence quenching using TC-6987, 10 uM tc6987 (ligand TC-6987 10 uM): 11
YFP fluorescence quenching using TC-6987, 500 uM tc6987 (ligand TC-6987 500 uM): 7.97
YFP fluorescence quenching using Varenicline, 3 nM var (first column): −10.926
YFP fluorescence quenching using Varenicline, 3 nM var (second column): −7.395
YFP fluorescence quenching using Varenicline, 30 nM var (first column): −5.661
YFP fluorescence quenching using Varenicline, 30 nM var (second column): −1.244
YFP fluorescence quenching using Varenicline, 300 nM var (first column): −4.555
YFP fluorescence quenching using Varenicline, 300 nM var (second column): 1.081
YFP fluorescence quenching using Varenicline, 500 nM var (first column): 9.172
YFP fluorescence quenching using Varenicline, 500 nM var (second column): 12.561
YFP fluorescence quenching using Varenicline, 1 uM var (first column): 7.139
YFP fluorescence quenching using Varenicline, 1 uM var (second column): 12.664

B2: CODA1045: engineered receptor: R101W, Y210V in SEQ ID NO: 33 (protein)
chain: MRCSPGGVWLALAASLLHVSLQGEFQRKLYKELVKNYNPLERPVANDSQPLTVYFSLSLLQIMDVDEKNQVLTTNIWLQMSWTDHYLQWNVSEYPGVKTVWFPDGQIWKPDILLYNSADERFDATFHTNVLVNSSGHCQYLPPGIFKSSCPMDLKNFPMDVQTCKLKFGSWSYGGWSLDLQMQEADISGYIPNGEWDLVGIPGKRSERFVECCKEPYPDVTFTVTMRRRMGYYLIQMYIPSLLIVILSWISFWINMDAAPARVGLGITTVLTMTTQSSGSRASLPKVSYVKAIDIWMAVCLLFVFSALLEYAAVNFVSRQHKELLRFRRKRRHHKSPMLNLFQEDEAGEGRFNFSAYGMGPACLQAKDGISVKGANNSNTTNPPPAPSKSPEEMRKLFIQRAKKIDKISRIGFPMAFLIFNMFYWIIYKIVRREDVHNQ
modifications: synthetic sequence of chimeric LGIC
YFP fluorescence quenching using CNL001 (percent quench) [1]: 0.804%
YFP fluorescence quenching using CNL001 (percent quench) [2]: 11.275%
YFP fluorescence quenching using TC-5619/Bradanicline (percent quench) [3]: −1.431%
YFP fluorescence quenching using TC-5619/Bradanicline (percent quench) [4]: −14.993%
YFP fluorescence quenching using CNL001 (percent quench) [5]: 15.843%
YFP fluorescence quenching using CNL001 (percent quench) [6]: 16.619%
YFP fluorescence quenching using TC-5619/Bradanicline (percent quench) [7]: −5.52%
YFP fluorescence quenching using TC-6683 (percent quench) (30 nM TC-6683): 1.735%
YFP fluorescence quenching using TC-5619/Bradanicline (percent quench) [8]: 15.49%
YFP fluorescence quenching using CNL001 (percent quench) [9]: 15.205%
YFP fluorescence quenching using CNL001 (percent quench) [10]: 18.771%
YFP fluorescence quenching using ABT-126 (percent quench) (50 nM abt (ABT-126)): −24.16%
YFP fluorescence quenching using CNL001 (percent quench) [11]: 9.332%
YFP fluorescence quenching using CNL001 (percent quench) [12]: 18.218%
YFP fluorescence quenching using ABT-126 (percent quench) (100 nM abt (ABT-126)): −24.7%
YFP fluorescence quenching using TC-5619/Bradanicline (percent quench) (100 nM brd (TC-5619/Bradanicline)): 72.105%
YFP fluorescence quenching using TC-6683 (percent quench) (300 nM TC-6683): 0.642%
YFP fluorescence quenching using ABT-126 (percent quench) (300 nM abt (ABT-126)): −16.09%
YFP fluorescence quenching using TC-5619/Bradanicline (percent quench) [13]: 71.411%
YFP fluorescence quenching using CNL001 (percent quench) [14]: 35.294%
YFP fluorescence quenching using CNL001 (percent quench) [15]: 36.542%
YFP fluorescence quenching using ABT-126 (percent quench) (1 uM abt (ABT-126)): −11.61%
YFP fluorescence quenching using TC-6683 (percent quench) (3 uM TC-6683): 2.403%
YFP fluorescence quenching (percent quench) (10 uM ach (acetylcholine)): −2.52%
YFP fluorescence quenching using TC-6683 (percent quench) (30 uM TC-6683): 6.006%
YFP fluorescence quenching using TC-6683 (percent quench) (100 uM TC-6683): −4.277%
YFP fluorescence quenching (percent quench) (100 uM ach (acetylcholine)): −11.98%
YFP fluorescence quenching (percent quench) (300 uM ach (acetylcholine)): −16.71%
YFP fluorescence quenching (percent quench) (500 uM ach (acetylcholine)): −12.87%
YFP fluorescence quenching (percent quench) (1 mM ach (acetylcholine)): −14.41%
YFP fluorescence quenching (percent quench) (3 mM ach (acetylcholine)): −7.4%
YFP fluorescence quenching (percent quench) (10 mM ach (acetylcholine)): −1.5%
YFP fluorescence quenching using Varenicline, 3 nM var (first column): 6.745
YFP fluorescence quenching using Varenicline, 3 nM var (second column): 8.397
YFP fluorescence quenching using Varenicline, 30 nM var (first column): 14.1
YFP fluorescence quenching using Varenicline, 30 nM var (second column): 19.095
YFP fluorescence quenching using Varenicline, 300 nM var (first column): 16.83
YFP fluorescence quenching using Varenicline, 300 nM var (second column): 21.507
YFP fluorescence quenching using Varenicline, 500 nM var (first column): 21.586
YFP fluorescence quenching using Varenicline, 500 nM var (second column): 23.131
YFP fluorescence quenching using Varenicline, 1 uM var (first column): 31.591
YFP fluorescence quenching using Varenicline, 1 uM var (second column): 26.479
